Data: publication PMC13334471 (Journal of molecular and cellular cardiology, 2026)

How the values were obtained:
Experiment in all cases: SPR
[1] = target: Rabbit cardiac α-tropomyosin (rabbit, UniProt P58772 1-284)
[2] = target: F-actin from rabbit back muscle (rabbit, UniProt P68135 1-377)
[3] = target: F-actin-Tm composite thin filament (rabbit, UniProt P68135 1-377; P58772 1-284)

Binder	Maximum Signal (Δpm) [1]	koff [1] [s⁻¹]	kon [1] [M⁻¹ s⁻¹]	Maximum Signal (Δpm) [2]	koff [2] [s⁻¹]	kon [2] [M⁻¹ s⁻¹]	Maximum Signal (Δpm) [3]	koff [3] [s⁻¹]	kon [3] [M⁻¹ s⁻¹]
SKTRGKAKVTGRWK (peptide, UniProt P45379-6 275-288, looked up)	420 Δpm	0.0374	5910	397 Δpm	0.0278	4150	434 Δpm	0.0362	5270
SKTRGNAKVTGRWK (peptide, UniProt P45379-6 275-288, looked up) [Human cTnT-C14 peptide containing HCM-linked mutation K280N]	108 Δpm	0.0351	6600	112 Δpm	0.0415	3810	109 Δpm	0.041	6450

Next, values leading:

Maximum Signal (Δpm) [1]	koff [1] [s⁻¹]	kon [1] [M⁻¹ s⁻¹]	Maximum Signal (Δpm) [2]	koff [2] [s⁻¹]	kon [2] [M⁻¹ s⁻¹]	Maximum Signal (Δpm) [3]	koff [3] [s⁻¹]	kon [3] [M⁻¹ s⁻¹]	Binder
114 Δpm	0.0166	3110	112 Δpm	0.0172	1570	126 Δpm	0.0256	3850	SKTRGKAKVTGCWK (peptide, UniProt P45379-6 275-288, looked up) [Human cTnT-C14 peptide containing HCM-linked mutation R286C]
95.4 Δpm	0.0219	2500	144 Δpm	0.0169	1450	134 Δpm	0.02	3930	SKTCGKAKVTGRWK (peptide, UniProt P45379-6 275-288, looked up) [Human cTnT-C14 peptide containing HCM-linked mutation R278C]
